Reference: PMC6966528

Biological target: mutant E-cadherin-GFP (Y753, 754, 859, and 876 mutated into F) (human) (UniProt P12830)
Assay: co-IP; lysates of HEK293T cells transiently transfected with WT or mutant E-Cdh-GFP; IP with anti-GFP antibody; Western blot for α- and β-Ctn, densitometry relative to the WT band set to 1

Chain of UniProt P12830 (P12830 other isoform, or with tags, fused parts or gaps mutant): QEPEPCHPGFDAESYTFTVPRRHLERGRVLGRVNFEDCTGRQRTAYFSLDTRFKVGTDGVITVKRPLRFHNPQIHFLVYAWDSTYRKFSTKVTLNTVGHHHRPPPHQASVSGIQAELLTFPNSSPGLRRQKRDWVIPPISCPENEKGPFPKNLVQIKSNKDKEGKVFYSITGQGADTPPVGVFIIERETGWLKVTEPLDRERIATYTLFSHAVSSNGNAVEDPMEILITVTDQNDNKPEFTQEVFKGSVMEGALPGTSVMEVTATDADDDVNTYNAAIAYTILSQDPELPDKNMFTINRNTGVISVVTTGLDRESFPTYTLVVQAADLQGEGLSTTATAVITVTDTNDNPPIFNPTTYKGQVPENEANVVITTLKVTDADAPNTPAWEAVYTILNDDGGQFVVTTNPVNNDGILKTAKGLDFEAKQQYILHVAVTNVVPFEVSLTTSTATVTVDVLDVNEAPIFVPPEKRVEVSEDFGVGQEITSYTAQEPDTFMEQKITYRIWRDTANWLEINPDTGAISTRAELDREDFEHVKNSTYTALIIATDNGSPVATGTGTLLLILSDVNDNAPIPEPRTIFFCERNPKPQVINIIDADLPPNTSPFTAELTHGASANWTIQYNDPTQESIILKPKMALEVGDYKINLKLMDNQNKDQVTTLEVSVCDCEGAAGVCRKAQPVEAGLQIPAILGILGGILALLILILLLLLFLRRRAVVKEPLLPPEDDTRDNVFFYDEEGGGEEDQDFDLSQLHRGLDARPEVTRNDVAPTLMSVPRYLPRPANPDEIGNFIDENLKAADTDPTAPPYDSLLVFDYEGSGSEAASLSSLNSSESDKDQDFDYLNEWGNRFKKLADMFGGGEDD

reduction of co-immunoprecipitation relative to WT E-Cdh-GFP [%]	Substance
60	β-catenin (from UniProt P35222 1-781) (natural protein)
60	α-catenin (from UniProt P35221 1-906) (natural protein)
